Like-named read-outs stand apart in the source and are kept apart here.

The record followed here is article PMC6043778, “Purification and Initial Characterization of 3-Hydroxybenzoate 6-Hydroxylase From a Halophilic Martelella Strain AD-3” (Frontiers in Microbiology, 2018).

Data set [1] deals with T1, 3HB6H from strain AD-3 (3-hydroxybenzoate 6-hydroxylase; AZF01_02545) (Martelella sp. AD-3, UniProt Z9T156WZO1).
T1 construct: full-length, N-terminal His6 tag (pET28a, EcoRI/HindIII), E. coli BL21(DE3), Ni-NTA; about 46 kDa by SDS-PAGE, 90 kDa by Native-PAGE (probable dimer); FAD-containing
T1 sequence (Z9T156WZO1 1-403): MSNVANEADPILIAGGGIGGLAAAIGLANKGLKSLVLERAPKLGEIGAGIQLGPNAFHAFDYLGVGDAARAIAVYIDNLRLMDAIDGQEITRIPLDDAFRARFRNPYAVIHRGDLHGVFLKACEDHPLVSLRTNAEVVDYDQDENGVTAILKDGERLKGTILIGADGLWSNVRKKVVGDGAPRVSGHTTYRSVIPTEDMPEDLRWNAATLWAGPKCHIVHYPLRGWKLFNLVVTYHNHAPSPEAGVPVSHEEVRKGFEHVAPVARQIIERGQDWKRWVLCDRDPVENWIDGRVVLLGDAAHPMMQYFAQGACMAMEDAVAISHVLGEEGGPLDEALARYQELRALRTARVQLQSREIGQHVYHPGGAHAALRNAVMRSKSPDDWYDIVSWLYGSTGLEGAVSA
The data set is described as follows: NADH oxidation at […] nm, Lineweaver-Burk. In kind it is biochemical. The settings on record: 50 mM potassium phosphate pH 8.0, 30°C.

Substrate in data set [2]: O=C(O)c1cccc(O)c1
In words: purified protein. In kind it is biochemical, Martelella sp. AD-3. Conditions: 400 μM NADH, 50 mM potassium phosphate pH 8.0, 30°C.

Substrate in data set [3]: NC(=O)C1=CN([C@@H]2O[C@H](COP(=O)(O)OP(=O)(O)OC[C@H]3O[C@@H](n4cnc5c(N)ncnc54)[C@H](O)[C@@H]3O)[C@@H](O)[C@H]2O)C=CC1
The data set is described as follows: purified protein. Conditions: 400 μM 3-hydroxybenzoate, 50 mM potassium phosphate pH 8.0, 30°C. In kind it is biochemical, Martelella sp. AD-3.

For `NC(=O)C1=CN([C@@H]2O[C@H](COP(=O)(O)OP(=O)(O)OC[C@H]3O[C@@H](n4cnc5c(N)ncnc54)[C@H](O)[C@@H]3O)[C@@H](O)[C@H]2O)C=CC1` [NADH], in data set [1] (400 μM 3-hydroxybenzoate, read-out: NADH / Km), the Km amounted to 50 ± 9.7 µM.

In the case of `O=C(O)c1cccc(O)c1` [3-hydroxybenzoate], in data set [1] (400 μM NADH, read-out: 3HB / Km), the Km is 28.6 ± 7.3 µM.

B1: 3HB6H from strain AD-3 (3-hydroxybenzoate 6-hydroxylase; AZF01_02545) (Martelella sp. AD-3) (protein)
chain: MSNVANEADPILIAGGGIGGLAAAIGLANKGLKSLVLERAPKLGEIGAGIQLGPNAFHAFDYLGVGDAARAIAVYIDNLRLMDAIDGQEITRIPLDDAFRARFRNPYAVIHRGDLHGVFLKACEDHPLVSLRTNAEVVDYDQDENGVTAILKDGERLKGTILIGADGLWSNVRKKVVGDGAPRVSGHTTYRSVIPTEDMPEDLRWNAATLWAGPKCHIVHYPLRGWKLFNLVVTYHNHAPSPEAGVPVSHEEVRKGFEHVAPVARQIIERGQDWKRWVLCDRDPVENWIDGRVVLLGDAAHPMMQYFAQGACMAMEDAVAISHVLGEEGGPLDEALARYQELRALRTARVQLQSREIGQHVYHPGGAHAALRNAVMRSKSPDDWYDIVSWLYGSTGLEGAVSA
notes: full-length, N-terminal His6 tag (pET28a, EcoRI/HindIII), E. coli BL21(DE3), Ni-NTA; about 46 kDa by SDS-PAGE, 90 kDa by Native-PAGE (probable dimer); FAD-containing
For the molecule B1, in the data set “purified protein [2]”, the Km was found to be 72.6 ± 10.1 µM, the catalytic constant (kcat) is 5.7 ± 0.2 s⁻¹ and the kcat/Km came out at 80000 M⁻¹ s⁻¹. Also, in “purified protein [3]”, the Km is 104.1 ± 18.2 µM, the catalytic constant (kcat) turned out to be 7.8 ± 0.4 s⁻¹ and the kcat/Km stood at 80000 M⁻¹ s⁻¹.

B2: 3HB6H from strain AD-3 (3-hydroxybenzoate 6-hydroxylase; AZF01_02545) (Martelella sp. AD-3; A308G) (protein)
chain: MSNVANEADPILIAGGGIGGLAAAIGLANKGLKSLVLERAPKLGEIGAGIQLGPNAFHAFDYLGVGDAARAIAVYIDNLRLMDAIDGQEITRIPLDDAFRARFRNPYAVIHRGDLHGVFLKACEDHPLVSLRTNAEVVDYDQDENGVTAILKDGERLKGTILIGADGLWSNVRKKVVGDGAPRVSGHTTYRSVIPTEDMPEDLRWNAATLWAGPKCHIVHYPLRGWKLFNLVVTYHNHAPSPEAGVPVSHEEVRKGFEHVAPVARQIIERGQDWKRWVLCDRDPVENWIDGRVVLLGDAAHPMMQYFGQGACMAMEDAVAISHVLGEEGGPLDEALARYQELRALRTARVQLQSREIGQHVYHPGGAHAALRNAVMRSKSPDDWYDIVSWLYGSTGLEGAVSA
notes: as for B1
In the case of B2, in the data set “purified protein [2]”, the Km is 38.0 ± 10.1 µM, the kcat was 2.3 ± 0.1 s⁻¹ and the kcat/Km is 60000 M⁻¹ s⁻¹. In addition, in “purified protein [3]”, the Km amounted to 33.7 ± 6.4 µM, the kcat was 2 ± 0.1 s⁻¹ and the kcat/Km came out at 60000 M⁻¹ s⁻¹.

B3: 3HB6H from strain AD-3 (3-hydroxybenzoate 6-hydroxylase; AZF01_02545) (Martelella sp. AD-3; Q305P) (protein)
chain: MSNVANEADPILIAGGGIGGLAAAIGLANKGLKSLVLERAPKLGEIGAGIQLGPNAFHAFDYLGVGDAARAIAVYIDNLRLMDAIDGQEITRIPLDDAFRARFRNPYAVIHRGDLHGVFLKACEDHPLVSLRTNAEVVDYDQDENGVTAILKDGERLKGTILIGADGLWSNVRKKVVGDGAPRVSGHTTYRSVIPTEDMPEDLRWNAATLWAGPKCHIVHYPLRGWKLFNLVVTYHNHAPSPEAGVPVSHEEVRKGFEHVAPVARQIIERGQDWKRWVLCDRDPVENWIDGRVVLLGDAAHPMMPYFAQGACMAMEDAVAISHVLGEEGGPLDEALARYQELRALRTARVQLQSREIGQHVYHPGGAHAALRNAVMRSKSPDDWYDIVSWLYGSTGLEGAVSA
notes: as for B1
With B3, in the data set “purified protein [2]”, the Km was 91.3 ± 13.5 µM, the turnover number (kcat) amounted to 1.6 ± 0.1 s⁻¹ and the kcat/Km was determined as 20000 M⁻¹ s⁻¹. Further, in the data set “purified protein [3]”, the Km turned out to be 95.9 ± 23.2 µM, the kcat amounted to 1.6 ± 0.1 s⁻¹ and the catalytic efficiency (kcat/Km) amounted to 20000 M⁻¹ s⁻¹.

B4: 3HB6H from strain AD-3 (3-hydroxybenzoate 6-hydroxylase; AZF01_02545) (Martelella sp. AD-3; Y221F) (protein)
chain: MSNVANEADPILIAGGGIGGLAAAIGLANKGLKSLVLERAPKLGEIGAGIQLGPNAFHAFDYLGVGDAARAIAVYIDNLRLMDAIDGQEITRIPLDDAFRARFRNPYAVIHRGDLHGVFLKACEDHPLVSLRTNAEVVDYDQDENGVTAILKDGERLKGTILIGADGLWSNVRKKVVGDGAPRVSGHTTYRSVIPTEDMPEDLRWNAATLWAGPKCHIVHFPLRGWKLFNLVVTYHNHAPSPEAGVPVSHEEVRKGFEHVAPVARQIIERGQDWKRWVLCDRDPVENWIDGRVVLLGDAAHPMMQYFAQGACMAMEDAVAISHVLGEEGGPLDEALARYQELRALRTARVQLQSREIGQHVYHPGGAHAALRNAVMRSKSPDDWYDIVSWLYGSTGLEGAVSA
notes: as for B1
Take B4: in the data set “purified protein [2]”, the Km is 164.2 ± 14.0 µM, the kcat came out at 1.7 ± 0.1 s⁻¹ and the kcat/Km was 10000 M⁻¹ s⁻¹. In “purified protein [3]”, the Km came to 86.7 ± 10.8 µM, the turnover number (kcat) was 1 ± 0.1 s⁻¹ and the kcat/Km was determined as 10000 M⁻¹ s⁻¹.

B5: 3HB6H from strain AD-3 (3-hydroxybenzoate 6-hydroxylase; AZF01_02545) (Martelella sp. AD-3; Y306H) (protein)
chain: MSNVANEADPILIAGGGIGGLAAAIGLANKGLKSLVLERAPKLGEIGAGIQLGPNAFHAFDYLGVGDAARAIAVYIDNLRLMDAIDGQEITRIPLDDAFRARFRNPYAVIHRGDLHGVFLKACEDHPLVSLRTNAEVVDYDQDENGVTAILKDGERLKGTILIGADGLWSNVRKKVVGDGAPRVSGHTTYRSVIPTEDMPEDLRWNAATLWAGPKCHIVHYPLRGWKLFNLVVTYHNHAPSPEAGVPVSHEEVRKGFEHVAPVARQIIERGQDWKRWVLCDRDPVENWIDGRVVLLGDAAHPMMQHFAQGACMAMEDAVAISHVLGEEGGPLDEALARYQELRALRTARVQLQSREIGQHVYHPGGAHAALRNAVMRSKSPDDWYDIVSWLYGSTGLEGAVSA
notes: as for B1
Turning to B5, in “purified protein [2]”, the Km was 46.3 ± 6.9 µM, the kcat was 1.5 ± 0.1 s⁻¹ and the kcat/Km amounted to 30000 M⁻¹ s⁻¹. Also, in the data set “purified protein [3]”, the Km came to 103.7 ± 13.6 µM and the catalytic constant (kcat) is 1.6 ± 0.3 s⁻¹.
